To fix the notation:
B3: STN1 (subunit of purified recombinant human CST) (natural protein, UniProt Q9H668 1-368, looked up)
chain: MQPGSSRCEEETPSLLWGLDPVFLAFAKLYIRDILDMKESRQVPGVFLYNGHPIKQVDVLGTVIGVRERDAFYSYGVDDSTGVINCICWKKLNTESVSAAPSAARELSLTSQLKKLQETIEQKTKIEIGDTIRVRGSIRTYREEREIHATTYYKVDDPVWNIQIARMLELPTIYRKVYDQPFHSSALEKEEALSNPGALDLPSLTSLLSEKAKEFLMENRVQSFYQQELEMVESLLSLANQPVIHSASSDQVNFKKDTTSKAIHSIFKNAIQLLQEKGLVFQKDDGFDNLYYVTREDKDLHRKIHRIIQQDCQKPNHMEKGCHFLHILACARLSIRPGLSEAVLQQVLELLEDQSDIVSTMEHYYTAF
B4: CTC1 (subunit of purified recombinant human CST) (natural protein, UniProt Q2NKJ3 1-1217, looked up)
chain: MAAGRAQVPSSEQAWLEDAQVFIQKTLCPAVKEPNVQLTPLVIDCVKTVWLSQGRNQGSTLPLSYSFVSVQDLKTHQRLPCCSHLSWSSSAYQAWAQEAGPNGNPLPREQLLLLGTLTDLSADLEQECRNGSLYVRDNTGVLSCELIDLDLSWLGHLFLFPRWSYLPPARWNSSGEGHLELWDAPVPVFPLTISPGPVTPIPVLYPESASCLLRLRNKLRGVQRNLAGSLVRLSALVKSKQKAYFILSLGRSHPAVTHVSIIVQVPAQLVWHRALRPGTAYVLTELRVSKIRGQRQHVWMTSQSSRLLLLKPECVQELELELEGPLLEADPKPLPMPSNSEDKKDPESLVRYSRLLSYSGAVTGVLNEPAGLYELDGQLGLCLAYQQFRGLRRVMRPGVCLQLQDVHLLQSVGGGTRRPVLAPCLRGAVLLQSFSRQKPGAHSSRQAYGASLYEQLVWERQLGLPLYLWATKALEELACKLCPHVLRHHQFLQHSSPGSPSLGLQLLAPTLDLLAPPGSPVRNAHNEILEEPHHCPLQKYTRLQTPSSFPTLATLKEEGQRKAWASFDPKALLPLPEASYLPSCQLNRRLAWSWLCLLPSAFCPAQVLLGVLVASSHKGCLQLRDQSGSLPCLLLAKHSQPLSDPRLIGCLVRAERFQLIVERDVRSSFPSWKELSMPGFIQKQQARVYVQFFLADALILPVPRPCLHSATPSTPQTDPTGPEGPHLGQSRLFLLCHKEALMKRNFCVPPGASPEVPKPALSFYVLGSWLGGTQRKEGTGWGLPEPQGNDDNDQKVHLIFFGSSVRWFEFLHPGQVYRLIAPGPATPMLFEKDGSSCISRRPLELAGCASCLTVQDNWTLELESSQDIQDVLDANKSLPESSLTDLLSDNFTDSLVSFSAEILSRTLCEPLVASLWMKLGNTGAMRRCVKLTVALETAECEFPPHLDVYIEDPHLPPSLGLLPGARVHFSQLEKRVSRSHNVYCCFRSSTYVQVLSFPPETTISIPLPHIYLAELLQGGQSPFQATASCHIVSVFSLQLFWVCAYCTSICRQGKCTRLGSTCPTQTAISQAIIRLLVEDGTAEAVVTCRNHHVAAALGLCPREWASLLDFVQVPGRVVLQFAGPGAQLESSARVDEPMTMFLWTLCTSPSVLRPIVLSFELERKPSKIVPLEPPRLQRFQCGELPFLTHVNPRLRLSCLSIRESEYSSSLGILASSC

Data set [1] deals with B3. Description: cryo-EM structure.
Data set [2] has as its target B4. As to the kind of experiment: cryo-EM structure.
The data set “negative-stain EM” concerns the molecule itself. Description: negative-stain EM.
The data set “cryo-EM structure” concerns the molecule itself. Description: cryo-EM structure.

Values joined by “and” are separate entries in the source; they are usually repeats but may differ in a detail not shown here. Equal values may be shown once.

B1: TEN1 (subunit of purified recombinant human CST) (natural protein)
chain: MLPKPGTYYLPWEVSAGQVPDGSTLRTFGRLCLYDMIQSRVTLMAQHGSDQHQVLVCTKLVEPFHAQVGSLYIVLGELQHQQDRGSVVKARVLTCVEGMNLPLLEQAIREQRLYKQERGGSQ
One may read the stoichiometry N as a count of units in the complex or per binding partner. Consider B1, for which, in data set [1], the “stoichiometry N” value is 1. For the same molecule, the binding result in data set [2] is recorded as “binds”.

B2: human CTC1-STN1-TEN1 (CST) complex, purified recombinant heterotrimer (complex)
chain 1: AAGRAQVPSSEQAWLEDAQVFIQKTLCPAVKEPNVQLTPLVIDCVKTVWLSQGRNQGSTLPLSYSFVSVQDLKTHQRLPCCSHLSWSSSAYQAWAQEAGPNGNPLPREQLLLLGTLTDLSADLEQECRNGSLYVRDNTGVLSCELIDLDLSWLGHLFLFPRWSYLPPARWNSSGEGHLELWDAPVPVFPLTISPGPVTPIPVLYPESASCLLRLRNKLRGVQRNLAGSLVRLSALVKSKQKAYFILSLGRSHPAVTHVSIIVQVPAQLVWHRALRPGTAYVLTELRVSKIRGQRQHVWMTSQSSRLLLLKPECVQELELELEGPLLEADPKPLPMPSNSEDKKDPESLVRYSRLLSYSGAVTGVLNEPAGLYELDGQLGLCLAYQQFRGLRRVMRPGVCLQLQDVHLLQSVGGGTRRPVLAPCLRGAVLLQSFSRQKPGAHSSRQAYGASLYEQLVWERQLGLPLYLWATKALEELACKLCPHVLRHHQFLQHSSPGSPSLGLQLLAPTLDLLAPPGSPVRNAHNEILEEPHHCPLQKYTRLQTPSSFPTLATLKEEGQRKAWASFDPKALLPLPEASYLPSCQLNRRLAWSWLCLLPSAFCPAQVLLGVLVASSHKGCLQLRDQSGSLPCLLLAKHSQPLSDPRLIGCLVRAERFQLIVERDVRSSFPSWKELSMPGFIQKQQARVYVQFFLADALILPVPRPCLHSATPSTPQTDPTGPEGPHLGQSRLFLLCHKEALMKRNFCVPPGASPEVPKPALSFYVLGSWLGGTQRKEGTGWGLPEPQGNDDNDQKVHLIFFGSSVRWFEFLHPGQVYRLIAPGPATPMLFEKDGSSCISRRPLELAGCASCLTVQDNWTLELESSQDIQDVLDANKSLPESSLTDLLSDNFTDSLVSFSAEILSRTLCEPLVASLWMKLGNTGAMRRCVKLTVALETAECEFPPHLDVYIEDPHLPPSLGLLPGARVHFSQLEKRVSRSHNVYCCFRSSTYVQVLSFPPETTISIPLPHIYLAELLQGGQSPFQATASCHIVSVFSLQLFWVCAYCTSICRQGKCTRLGSTCPTQTAISQAIIRLLVEDGTAEAVVTCRNHHVAAALGLCPREWASLLDFVQVPGRVVLQFAGPGAQLESSARVDEPMTMFLWTLCTSPSVLRPIVLSFELERKPSKIVPLEPPRLQRFQCGELPFLTHVNPRLRLSCLSIRESEYSSSLGILASSC
chain 2: QPGSSRCEEETPSLLWGLDPVFLAFAKLYIRDILDMKESRQVPGVFLYNGHPIKQVDVLGTVIGVRERDAFYSYGVDDSTGVINCICWKKLNTESVSAAPSAARELSLTSQLKKLQETIEQKTKIEIGDTIRVRGSIRTYREEREIHATTYYKVDDPVWNIQIARMLELPTIYRKVYDQPFHSSALEKEEALSNPGALDLPSLTSLLSEKAKEFLMENRVQSFYQQELEMVESLLSLANQPVIHSASSDQVNFKKDTTSKAIHSIFKNAIQLLQEKGLVFQKDDGFDNLYYVTREDKDLHRKIHRIIQQDCQKPNHMEKGCHFLHILACARLSIRPGLSEAVLQQVLELLEDQSDIVSTMEHYYTAF
chain 3: LPKPGTYYLPWEVSAGQVPDGSTLRTFGRLCLYDMIQSRVTLMAQHGSDQHQVLVCTKLVEPFHAQVGSLYIVLGELQHQQDRGSVVKARVLTCVEGMNLPLLEQAIREQRLYKQERGGSQ
For the molecule B2, the “stoichiometry N” value in “negative-stain EM” was 4 and 2.

On to B3, for which the “stoichiometry N” value in data set [2] came out at 1.

B4: the binding result in “cryo-EM structure” was “binds”.

For the origin of these results see publication PMC7559292 (Science (New York, N.Y.), 2020).
